Patent US20100003237

Molecular target: Soluble rat tail collagen Type I (UniProt P02454)

Histidine (His)-tagged purified recombinant human cathepsin-L (R&D Systems, Cat# 952-CY), sequence (chain, as listed by the source): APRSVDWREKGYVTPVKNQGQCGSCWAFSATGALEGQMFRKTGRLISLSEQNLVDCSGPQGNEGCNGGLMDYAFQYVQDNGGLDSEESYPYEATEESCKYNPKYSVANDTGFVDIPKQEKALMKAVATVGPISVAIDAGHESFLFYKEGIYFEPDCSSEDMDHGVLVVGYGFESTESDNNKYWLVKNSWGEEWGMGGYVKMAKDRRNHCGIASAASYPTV
cathepsin D (R&D systems, activated), sequence (chain, as listed by the source): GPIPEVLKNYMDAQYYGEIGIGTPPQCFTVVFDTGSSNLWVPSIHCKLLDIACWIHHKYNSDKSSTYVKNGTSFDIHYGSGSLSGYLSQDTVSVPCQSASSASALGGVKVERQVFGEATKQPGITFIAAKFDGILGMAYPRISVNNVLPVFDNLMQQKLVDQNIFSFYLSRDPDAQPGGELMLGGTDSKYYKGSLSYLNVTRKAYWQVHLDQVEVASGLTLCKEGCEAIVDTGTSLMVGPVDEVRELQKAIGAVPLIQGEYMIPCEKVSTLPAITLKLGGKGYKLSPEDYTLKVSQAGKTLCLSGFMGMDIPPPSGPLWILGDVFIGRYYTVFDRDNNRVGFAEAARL

Row | Substance | degradation of soluble rat tail collagen Type I (1 hour at 37° C., SDS-Page gels, Coomassie Blue staining)
1 | Bacterial collagenase (Sigma Chemicals) | bacterial collagenase degraded rat collagen at both pH 5.0 and pH 8.0
2 | cathepsin B (R&D systems, activated) | Cathepsins B, D and S showed some slight degradation of rat collagen at the manufacture specified pH and no degradation of rat collagen at pH 8.0
3 | Histidine (His)-tagged purified recombinant human cathepsin-L (R&D Systems, Cat# 952-CY) | cathepsin-L was the only enzyme that was active at pH 5.0, but not at pH 8.0
4 | cathepsin D (R&D systems, activated) | Cathepsins B, D and S showed some slight degradation of rat collagen at the manufacture specified pH and no degradation of rat collagen at pH 8.0
